The test system of series [1] is platelets. Briefly: Release of sCD154 from stimulated platelets in platelet-rich plasma (ELISA). The class given is cell-based, human. To be noted: for Inhibition of sCD154 Release at >90% Platelet Aggregation Inhibition, % / Potentiation of sCD154 Release, %: TRAP-stimulated platelets, average and SD; for Inhibition of sCD154 Release at >90% Platelet Aggregation Inhibition, %: release without GP IIb-IIIa inhibitor set at 100%; for Potentiation of sCD154 Release, %: maximal potentiation, release without inhibitor set at 100%. The procedure: Platelet-rich plasma (PRP) was prepared from human donors by obtaining blood through a 19-gauge butterfly into PPACK anticoagulant (8.6 ml of 2.1 mM PPACK, Calbiochem, La Jolla, Calif.: final concentration 0.3 mM). Blood was aliquoted into 15 ml polypropylene tubes and centrifuged at 900 rpm for 20 minutes (160×g). The platelet rich plasma (PRP) was carefully removed and pooled in a new tube. Platelet counts were taken and recorded. Aliquots of PRP at 37° C. were then added to 1.5 ml microcentrifuge tubes containing various amounts of eptifibatide. To initiate aggregation, 20 μM ADP 4 μg/mL collagen or 5 μM TRAP6 was added and samples were rocked on a Nutator for 30 minutes at 37° C. The tubes were put on ice and immediately centrifuged at 15,000×g for 10 minutes at 4° C.
The platelet-poor plasma (PPP) supernatant was removed to new tubes and the levels of sCD154 in these samples were measured by ELISA. There was a time-dependent increase in sCD154 release when platelets were aggregated with either ADP or TRAP6.
(§1) In other experiments, various concentrations of eptifibatide, abciximab or tirofiban were added to PRP before the addition of TRAP. In the eptifibatide experiments, the release of βTG from platelet a granules was determined from PPP samples by ELISA. Inhibition of aggregation by GP IIb-IIIa antagonists was determined in PPACK-anticoagulated PRP by light-transmission aggregometry (Chrono-Log) as described in Phillips et al. (1995) J Exp. Med 182:33-40. To assess the effect of aspirin use on the release of sCD154 from platelets, PRP was obtained from 7 donors, incubated with a single concentration of GP IIb-IIIa inhibitor, and stimulated with 20 μmol/L ADP, 5 μmol/L TRAP or 4 μg/mL collagen for 30 minutes while rocking at 37° C. Resultant PPP was measured for sCD154. The same donors then took 325 mg of aspirin for 7 days. PRP was again collected and subjected to the same conditions, and the release of sCD154 was determined. A control reading (no addition of inhibitor) was taken with the agonist 0.5 mmol/L arachidonic acid in citrated PRP to ensure that the aspirin had been taken.

For series [2], the system named is platelets. Briefly: Platelet aggregation in PRP by light-transmission aggregometry. The class given is cell-based, human. To be noted: before and after 7 days of aspirin. The protocol: as §1
The subject of series [3] is platelets in whole blood. Briefly: Perfusion chamber: thrombus formation of whole blood on protein-coated surface under shear. The class given is cell-based, human. To be noted: with or without Fg. The protocol: The effect of CD154 on the aggregation of platelets under conditions of high shear stress were evaluated. Recombinant CD154 (rCD154 or rCD40L) was compared to fibrinogen (Fg) in its ability to form thrombi as well as in combination with Fg. Controls also included CD154 in which the KGD eptifibatide-recognition sequence was mutated to KGE (CD154(KGE) or CD40L(KGE)). Briefly, a silicone gasket with a flow path height of 127 μm was placed between a flat perfusion chamber (Glycotech, Rockville, Md.) and a protein-coated petri dish as described (Andre, P. et al., Nature Medicine, 8:247-252 (2002)). Petri dishes were coated with rCD40L, Fibrinogen (Fg), rCD40L+Fg, mutated CD40L (CD40L(KGE)), CD40L(KGE)+Fg. In one experiment, the glycoprotein IIb/IIIa antagonist eptifibatide (2 μM) was incubated with whole blood before perfusion over the rCD40L-coated surface. When Fg was coated with either rCD40L or CD40L(KGE), each molecule was deposited at 25 μg/cm^2. Coating of the proteins was performed using the spray method in which 25 μl of a 1 mg/ml protein solution is coated onto the plastic with a retouching air brush resulting in a concentration of 25 μg/cm^2 (Houdijk, WP et al., J. Clin. Invest., 75:531-540 (1985)). Human peripheral blood was collected on PPACK (40 μmol/L final concentration) and perfused for 4 minutes over the protein-coated surface. Shear rates of 1500-1600/s, 500-600/s and 100-200/s, were generated with flow rates of ˜0.6, 0.25 and 0.075 ml/min, respectively. Measurements of thrombotic deposits were performed using the Simple PCI software image analysis program (Technical Instrument, Burlingame, Calif.).

The test system of series [4] is washed platelets. Description: Fibrinogen binding to washed platelets and microparticle generation (flow cytometry). The class given is cell-based, human. To be noted: 2 μM protein, 60 minutes at 37° C.; FIG. 10. The protocol: Venous blood was collected from normal donors into ACD buffer (85 mM Sodium Citrate, […] and 71 mM Citric acid) containing 0.05 μg/ml prostaglandin 12(PGI2). Blood was later centrifuged at 160×g for 20 minutes to collect platelet rich plasma (PRP). PRP was centrifuged at 1100×g for 10 minutes to sediment platelets. Platelets were washed twice with CGS buffer (13 mM trisodium citrate, 120 mM sodium chloride and 30 mM dextrose pH 7.0). The first wash had 0.03 μg/ml PGI2. Washed platelets were finally suspended in Tyrodes-Hepes buffer (12 mM sodium bi-carbonate, 138 mM sodium chloride, 5.5 mM glucose, 2.9 mM potassium chloride, 10 mM Hepes, 1 mM calcium chloride and 1 mM magnesium chloride, pH 7.4).
Washed platelets (1×10^7/ml) were incubated for 60 minutes at 37° C. with 2 μM soluble CD154 (sCD154) or mutant sCD154 (D117E mutation in the KGD sequence) in the presence or absence of eptifibatide or anti-CD40 antibody. All incubations had 100 nM Alexa-Fibrinogen (Molecular probes, Eugene, Oreg.). Samples were diluted 10 fold with stain buffer (BD Pharmingen, Los Angeles, Calif.) after incubation and analyzed by flow cytometry (FACSort, BD, San Jose, Calif.).

Series [5] in a line: Plasma inflammatory markers after PCI (ELISA). The format is in vivo, human. The protocol: (§2) Patients (n=45) undergoing PCI were enrolled. The study was approved by the IRB and all patients signed informed consent. Exclusion criteria included higher risk clinical scenarios mandating, according to institutional clinical practice, the use of GP IIb/IIIa antagonists (i.e., acute ST elevation MI or non q-wave MI with CPK elevation, pain at rest with EKG changes <24 hours, visible thrombus, pain refractory to heparin), pre-procedural GP IIb/IIIa inhibitor treatment, restenotic and graft lesions, and standard conditions excluding GP IIb/IIIa inhibitor use.
(§3) All patients received aspirin and intravenous heparin (50-70U/kg) monitored by activated clotting time (ACT) during the procedure. Patients were administered either no GP IIb/IIIa inhibitor, eptifibatide (180 μg/kg double bolus followed by 2 μg/kg/min for 16 h), or abciximab (0.25 mg/kg bolus intravenously followed by 0.125 μg/kg/min for 12 h) at the discretion of the primary operator. Platelet function was monitored using PPACK-anticoagulated blood and the Accumetrics RPFA device at baseline and 10 min post-final bolus. Interventionalists were blinded to RPFA results and not permitted to modify GP IIb-IIIa inhibitor dosing. Post-PCI, patients received clopidogrel (300 mg PO) followed by 75 mg daily.
Venous blood samples were collected prior to (t=0) and at 30 minutes, 2 hours, and 24 hours after the angioplasty wire was advanced across the lesion. Blood was collected into 10 mL tubes with either EDTA (for sCD 154 analysis) or PPACK (for all other analyses) anticoagulant, centrifuged at 4° C., and stored at −80° C. until analysis.
Inflammatory markers in plasma samples were quantified by commercially available ELISA for sCD154 (Alexis BioChemical) with modification (12), RANTES, IL6, sICAM-1 (BioSource), and CRP (Alpha Diagnostic International).
Primary endpoint data are presented as mean±SE. Data were log transformed to achieve a normal distribution verified by Kolmogorov-Smirnov test for normality. Statistical comparisons were performed using two-way ANOVA to determine a difference in mean values over time between the 3 groups. Pair-wise comparisons were performed when the ANOVA false-positive rate was ≦5%. A Bonferroni corrective for 3 pair-wise comparisons was applied, in which the p-value of […] was used to signify a false-positive rate of 5%. For ANOVA with a false-positive rate of ≧5%, the pair-wise comparisons were reported to be statistically nonsignificant (NS). Baseline and procedural characteristics data were analyzed with standard one way ANOVA for continuous data in more than 3 groups and a student's t-test for comparison of 2 groups. A Mann-Whitney Rank Sum test was used for nominal data. Statistical significance was assumed if the false positive rate was ≦5%.

The subject of series [6] is platelets. Description: Platelet function (Accumetrics RPFA) in patients undergoing PCI. To be noted: 10 minutes post final bolus. The class given is in vivo, human. The protocol:
as §2, §3

“Also recorded” adds a separate entry of the source.

Take `CC(=O)Oc1ccccc1C(=O)O` [aspirin]: in series [1] (after aspirin use), the “release of sCD154 from platelets stimulated with ADP or TRAP” value is reported as “unaffected; also recorded: does not block”. Moreover, in series [1] (aspirin, in words), the “release of CD154 from platelets activated by collagen” value is listed as “blocks”. The “decrease in the release of sCD154 from collagen-induced platelet aggregates” value in series [1] (donors took 325 mg aspirin for 7 days, collagen 4 μg/mL) came to 50%. Besides, the “platelet aggregation in response to optimal doses of platelet agonists” value in series [2] was “no effect”.

For the molecule `CCCCS(=O)(=O)N[C@@H](Cc1ccc(OCCCCC2CCNCC2)cc1)C(=O)O` [tirofiban], in series [1], the “Inhibition of sCD154 Release at >90% Platelet Aggregation Inhibition, %” value was 80 ± 5.3% and the “Potentiation of sCD154 Release, %” value is recorded as 19 ± 7.7%.

B1: CD40L(KGE): CD154 in which the KGD eptifibatide-recognition sequence was mutated to KGE (D117E) (protein, UniProt P29965 113-261, looked up, variant D117E)
CD40 ligand, soluble form: MQKGEQNPQIAAHVISEASSKTTSVLQWAEKGYYTMSNNLVTLENGKQLTVKRQGLYYIYAQVTFCSNREASSQAPFIASLCLKSPGRFERILLRAANTHSSAKPCGQQSIHLGGVFELQPGASVFVNVTDPSQVSHGTGFTSFGLLKL
As to B1, the “aggregate formation on coated surface” value in series [3] is “does not induce”. Also, the “fibrinogen binding to platelets and generation of microparticles” value in series [4] is “did not stimulate”.

B2: abciximab (antibody, chains of the INN, looked up, V domains shown)
VH: EVQLQQSGTVLARPGASVKMSCEASGYTFTNYWMHWVKQRPGQGLEWIGAIYPGNSDTSYIQKFKGKAKLTAVTSTTSVYMELSSLTNEDSAVYYCTLYDGYYVFAYWGQGTLVTVSA
VL: EIVLTQSPVTLSVTPGDSVSLSCRASRDISNNLHWFQQTSHESPRLLIKYASQSMSGIPSRFSGSGSGTDFTLSINSVETEDFGMYFCQQTNSWPYTFGGGTKLEIK
modifications: Fab
notes: parenteral GP IIb-IIIa antagonist
Regarding B2, in series [1], the “Inhibition of sCD154 Release at >90% Platelet Aggregation Inhibition, %” value came to 57 ± 8.2% and the “Potentiation of sCD154 Release, %” value worked out at 19 ± 7.5%. The “CRP levels after PCI” value in series [5] (2-24 hours after PCI, not statistically significant) was “lowest levels”. For the same molecule, in series [5] (versus baseline), the “plasma RANTES levels after PCI” value was “not observed”. Also, the “Platelet inhibition (% inhibition)” value in series [6] is recorded as 93±4%.

The record behind these values is patent publication US20040072750A1, “Compounds and methods for the modulation of CD154” (priority 2001, published 2004).
